Test results: US20110229560A1 (published 2011)

B1: TBK1 (expressed in 293T cells) (enzyme, UniProt Q9UHD2 1-729, looked up, not shown: small tags and cut ends)
chain: MQSTSNHLWLLSDILGQGATANVFRGRHKKTGDLFAIKVFNNISFLRPVDVQMREFEVLKKLNHKNIVKLFAIEEETTTRHKVLIMEFCPCGSLYTVLEEPSNAYGLPESEFLIVLRDVVGGMNHLRENGIVHRDIKPGNIMRVIGEDGQSVYKLTDFGAARELEDDEQFVSLYGTEEYLHPDMYERAVLRKDHQKKYGATVDLWSIGVTFYHAATGSLPFRPFEGPRRNKEVMYKIITGKPSGAISGVQKAENGPIDWSGDMPVSCSLSRGLQVLLTPVLANILEADQEKCWGFDQFFAETSDILHRMVIHVFSLQQMTAHKIYIHSYNTATIFHELVYKQTKIISSNQELIYEGRRLVLEPGRLAQHFPKTTEENPIFVVSREPLNTIGLIYEKISLPKVHPRYDLDGDASMAKAITGVVCYACRIASTLLLYQELMRKGIRWLIELIKDDYNETVHKKTEVVITLDFCIRNIEKTVKVYEKLMKINLEAAELGEISDIHTKLLRLSSSQGTIETSLQDIDSRLSPGGSLADAWAHQEGTHPKDRNVEKLQVLLNCMTEIYYQFKKDKAERRLAYNEEQIHKFDKQKLYYHATKAMTHFTDECVKKYEAFLNKSEEWIRKMLHLRKQLLSLTNQCFDIEEEVSKYQEYTNELQETLPQKMFTASSGIKHTMTPIYPSSNTLVEMTLGMKKLKEEMEGVVKELAENNHILERFGSLTMDGGLRNVDCL
B2: IRF3 (expressed in 293T cells) (other, UniProt Q14653 1-427, looked up, not shown: small tags and cut ends)
chain: MGTPKPRILPWLVSQLDLGQLEGVAWVNKSRTRFRIPWKHGLRQDAQQEDFGIFQAWAEATGAYVPGRDKPDLPTWKRNFRSALNRKEGLRLAEDRSKDPHDPHKIYEFVNSGVGDFSQPDTSPDTNGGGSTSDTQEDILDELLGNMVLAPLPDPGPPSLAVAPEPCPQPLRSPSLDNPTPFPNLGPSENPLKRLLVPGEEWEFEVTAFYRGRQVFQQTISCPEGLRLVGSEVGDRTLPGWPVTLPDPGMSLTDRGVMSYVRHVLSCLGGGLALWRAGQWLWAQRLGHCHTYWAVSEELLPNSGHGPDGEVPKDKEGGVFDLGPFIVDLITFTEGSGRSPRYALWFCVGESWPQDQPWTKRLVMVKVVPTCLRALVEMARVGGASSLENTVDLHISNSHPLSLTSDQYKAYLQDLVEGMDFQGPGES
B3: TRAF3 (expressed in 293T cells) (other, UniProt Q13114 1-568, looked up, not shown: small tags and cut ends)
chain: MESSKKMDSPGALQTNPPLKLHTDRSAGTPVFVPEQGGYKEKFVKTVEDKYKCEKCHLVLCSPKQTECGHRFCESCMAALLSSSSPKCTACQESIVKDKVFKDNCCKREILALQIYCRNESRGCAEQLMLGHLLVHLKNDCHFEELPCVRPDCKEKVLRKDLRDHVEKACKYREATCSHCKSQVPMIALQKHEDTDCPCVVVSCPHKCSVQTLLRSELSAHLSECVNAPSTCSFKRYGCVFQGTNQQIKAHEASSAVQHVNLLKEWSNSLEKKVSLLQNESVEKNKSIQSLHNQICSFEIEIERQKEMLRNNESKILHLQRVIDSQAEKLKELDKEIRPFRQNWEEADSMKSSVESLQNRVTELESVDKSAGQVARNTGLLESQLSRHDQMLSVHDIRLADMDLRFQVLETASYNGVLIWKIRDYKRRKQEAVMGKTLSLYSQPFYTGYFGYKMCARVYLNGDGMGKGTHLSLFFVIMRGEYDALLPWPFKQKVTLMLMDQGSSRRHLGDAFKPDPNSSSFKKPTGEMNIASGCPVFVAQTVLENGTYIKDDTIFIKVIVDTSDLPDP
B4: Flag-MAVS (other, UniProt Q7Z434 1-540, looked up, not shown: small tags and cut ends)
chain: MPFAEDKTYKYICRNFSNFCNVDVVEILPYLPCLTARDQDRLRATCTLSGNRDTLWHLFNTLQRRPGWVEYFIAALRGCELVDLADEVASVYQSYQPRTSDRPPDPLEPPSLPAERPGPPTPAAAHSIPYNSCREKEPSYPMPVQETQAPESPGENSEQALQTLSPRAIPRNPDGGPLESSSDLAALSPLTSSGHQEQDTELGSTHTAGATSSLTPSRGPVSPSVSFQPLARSTPRASRLPGPTGSVVSTGTSFSSSSPGLASAGAAEGKQGAESDQAEPIICSSGAEAPANSLPSKVPTTLMPVNTVALKVPANPASVSTVPSKLPTSSKPPGAVPSNALTNPAPSKLPINSTRAGMVPSKVPTSMVLTKVSASTVPTDGSSRNEETPAAPTPAGATGGSSAWLDSSSENRGLGSELSKPGVLASQVDSPFSGCFEDLAISASTSLGMGPCHGPEENEYKSEGTFGIHVAENPSIQLLEGNPGPPADPDGGPRPQADRKFQEREVPCHRPSPGALWLQVAVTGVLVVTLLVVLYRRRLH
B5: endogenous NEMO (RAW264.7 cells) (other, mouse, UniProt O88522 1-412, looked up)
chain: MNKHPWKNQLSEMVQPSGGPAEDQDMLGEESSLGKPAMLHLPSEQGTPETLQRCLEENQELRDAIRQSNQMLRERCEELLHFQVSQREEKEFLMCKFQEARKLVERLSLEKLDLRSQREQALKELEQLKKCQQQMAEDKASVKAQVTSLLGELQESQSRLEAATKDRQALEGRIRAVSEQVRQLESEREVLQQQHSVQVDQLRMQNQSVEAALRMERQAASEEKRKLAQLQAAYHQLFQDYDSHIKSSKGMQLEDLRQQLQQAEEALVAKQELIDKLKEEAEQHKIVMETVPVLKAQADIYKADFQAERHAREKLVEKKEYLQEQLEQLQREFNKLKVGCHESARIEDMRKRHVETPQPPLLPAPAHHSFHLALSNQRRSPPEEPPDFCCPKCQYQAPDMDTLQIHVMECIE
B6: IKKi (expressed in 293T cells, detected with anti-Flag) (enzyme, UniProt Q14164 1-716, looked up, not shown: small tags and cut ends)
chain: MQSTANYLWHTDDLLGQGATASVYKARNKKSGELVAVKVFNTTSYLRPREVQVREFEVLRKLNHQNIVKLFAVEETGGSRQKVLVMEYCSSGSLLSVLESPENAFGLPEDEFLVVLRCVVAGMNHLRENGIVHRDIKPGNIMRLVGEEGQSIYKLTDFGAARELDDDEKFVSVYGTEEYLHPDMYERAVLRKPQQKAFGVTVDLWSIGVTLYHAATGSLPFIPFGGPRRNKEIMYRITTEKPAGAIAGAQRRENGPLEWSYTLPITCQLSLGLQSQLVPILANILEVEQAKCWGFDQFFAETSDILQRVVVHVFSLSQAVLHHIYIHAHNTIAIFQEAVHKQTSVAPRHQEYLFEGHLCVLEPSVSAQHIAHTTASSPLTLFSTAIPKGLAFRDPALDVPKFVPKVDLQADYNTAKGVLGAGYQALRLARALLDGQELMFRGLHWVMEVLQATCRRTLEVARTSLLYLSSSLGTERFSSVAGTPEIQELKAAAELRSRLRTLAEVLSRCSQNITETQESLSSLNRELVKSRDQVHEDRSIQQIQCCLDKMNFIYKQFKKSRMRPGLGYNEEQIHKLDKVNFSHLAKRLLQVFQEECVQKYQASLVTHGKRMRVVHETRNHLRLVGCSVAACNTEAQGVQESLSKLLEELSHQLLQDRAKGAQASPPPIAPYPSPTRKDLLLHMQELCEGMKLLASDLLDNNRIIERLNRVPAPPDV

Assays:
[1] = molecular target: T1, HA-tagged NLRC5 (human NLRC5, full length) (human, UniProt Q86WI3 1-1866); assay: co-IP (anti-Flag or anti-HA beads) and Western blot, FIG. 15
T1 construct: Expressed from pcDNA3.1 with an HA tag in transfected 293T cells; used in lysates for co-immunoprecipitation; General statements about NLRC5 in overexpression experiments are put on this molecule; also called HA-NLRC5
T1 sequence (Q86WI3 whole entry N907D): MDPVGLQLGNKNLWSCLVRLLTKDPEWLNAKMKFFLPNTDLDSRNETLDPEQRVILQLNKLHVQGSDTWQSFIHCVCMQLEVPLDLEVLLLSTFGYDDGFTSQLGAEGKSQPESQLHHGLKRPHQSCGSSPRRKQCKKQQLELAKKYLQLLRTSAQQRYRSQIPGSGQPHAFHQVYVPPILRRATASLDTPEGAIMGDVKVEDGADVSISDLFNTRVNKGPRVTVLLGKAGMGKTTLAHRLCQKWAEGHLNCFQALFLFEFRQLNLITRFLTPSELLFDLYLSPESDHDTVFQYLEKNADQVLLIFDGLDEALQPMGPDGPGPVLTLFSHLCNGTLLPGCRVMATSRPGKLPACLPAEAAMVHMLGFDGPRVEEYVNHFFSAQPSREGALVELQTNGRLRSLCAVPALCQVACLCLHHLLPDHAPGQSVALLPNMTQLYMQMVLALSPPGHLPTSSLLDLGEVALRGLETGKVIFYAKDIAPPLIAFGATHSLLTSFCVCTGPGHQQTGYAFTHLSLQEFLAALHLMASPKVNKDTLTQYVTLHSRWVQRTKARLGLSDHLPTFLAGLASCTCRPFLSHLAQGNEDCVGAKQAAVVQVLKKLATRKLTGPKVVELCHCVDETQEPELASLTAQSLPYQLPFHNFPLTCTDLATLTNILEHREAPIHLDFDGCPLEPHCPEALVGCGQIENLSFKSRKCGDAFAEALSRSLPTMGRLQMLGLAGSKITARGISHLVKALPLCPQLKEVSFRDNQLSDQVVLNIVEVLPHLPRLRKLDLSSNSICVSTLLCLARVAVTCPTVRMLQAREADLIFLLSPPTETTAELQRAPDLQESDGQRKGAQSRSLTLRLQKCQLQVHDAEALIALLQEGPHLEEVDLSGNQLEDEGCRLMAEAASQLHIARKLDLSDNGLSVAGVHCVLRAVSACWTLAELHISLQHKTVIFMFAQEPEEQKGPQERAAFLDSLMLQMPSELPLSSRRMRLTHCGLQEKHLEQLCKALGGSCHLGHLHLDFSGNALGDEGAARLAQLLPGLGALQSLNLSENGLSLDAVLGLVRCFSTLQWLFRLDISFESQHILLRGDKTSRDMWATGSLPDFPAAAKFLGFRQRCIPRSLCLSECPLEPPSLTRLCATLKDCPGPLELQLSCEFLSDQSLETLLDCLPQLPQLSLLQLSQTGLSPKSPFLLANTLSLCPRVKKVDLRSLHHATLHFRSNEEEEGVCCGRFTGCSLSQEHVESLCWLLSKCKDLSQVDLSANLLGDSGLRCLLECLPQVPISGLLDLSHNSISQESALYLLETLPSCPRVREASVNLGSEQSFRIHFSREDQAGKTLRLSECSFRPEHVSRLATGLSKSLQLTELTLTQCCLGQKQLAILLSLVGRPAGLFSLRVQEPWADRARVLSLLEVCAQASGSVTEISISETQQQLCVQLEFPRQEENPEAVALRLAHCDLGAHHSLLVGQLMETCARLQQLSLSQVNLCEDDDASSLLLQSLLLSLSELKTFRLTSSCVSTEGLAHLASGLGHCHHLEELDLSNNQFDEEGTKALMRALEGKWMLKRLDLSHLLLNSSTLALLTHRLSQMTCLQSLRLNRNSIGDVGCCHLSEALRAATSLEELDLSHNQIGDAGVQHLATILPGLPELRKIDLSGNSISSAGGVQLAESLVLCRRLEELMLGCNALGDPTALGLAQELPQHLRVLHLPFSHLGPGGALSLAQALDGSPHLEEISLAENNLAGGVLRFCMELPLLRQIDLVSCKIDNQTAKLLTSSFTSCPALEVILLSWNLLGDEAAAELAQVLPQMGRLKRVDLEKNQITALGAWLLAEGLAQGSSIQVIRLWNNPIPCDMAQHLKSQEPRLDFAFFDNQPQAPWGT

[2] = molecular target: T1, HA-tagged NLRC5 (human NLRC5, full …); assay: co-IP (anti-HA beads) and Western blot (anti-Flag), transfected 293T cells
[3] = molecular target: T2, endogenous mouse NLRC5 (RAW264.7 cells) (mouse, UniProt C3VPR6 1-1915, limits assumed); assay: IP of RAW264.7 lysate with anti-mNLRC5, Western blot with anti-NEMO
T2 construct: Endogenous protein; also called mNLRC5; endogenous mNLRC5
T2 sequence (C3VPR6 whole entry G881R): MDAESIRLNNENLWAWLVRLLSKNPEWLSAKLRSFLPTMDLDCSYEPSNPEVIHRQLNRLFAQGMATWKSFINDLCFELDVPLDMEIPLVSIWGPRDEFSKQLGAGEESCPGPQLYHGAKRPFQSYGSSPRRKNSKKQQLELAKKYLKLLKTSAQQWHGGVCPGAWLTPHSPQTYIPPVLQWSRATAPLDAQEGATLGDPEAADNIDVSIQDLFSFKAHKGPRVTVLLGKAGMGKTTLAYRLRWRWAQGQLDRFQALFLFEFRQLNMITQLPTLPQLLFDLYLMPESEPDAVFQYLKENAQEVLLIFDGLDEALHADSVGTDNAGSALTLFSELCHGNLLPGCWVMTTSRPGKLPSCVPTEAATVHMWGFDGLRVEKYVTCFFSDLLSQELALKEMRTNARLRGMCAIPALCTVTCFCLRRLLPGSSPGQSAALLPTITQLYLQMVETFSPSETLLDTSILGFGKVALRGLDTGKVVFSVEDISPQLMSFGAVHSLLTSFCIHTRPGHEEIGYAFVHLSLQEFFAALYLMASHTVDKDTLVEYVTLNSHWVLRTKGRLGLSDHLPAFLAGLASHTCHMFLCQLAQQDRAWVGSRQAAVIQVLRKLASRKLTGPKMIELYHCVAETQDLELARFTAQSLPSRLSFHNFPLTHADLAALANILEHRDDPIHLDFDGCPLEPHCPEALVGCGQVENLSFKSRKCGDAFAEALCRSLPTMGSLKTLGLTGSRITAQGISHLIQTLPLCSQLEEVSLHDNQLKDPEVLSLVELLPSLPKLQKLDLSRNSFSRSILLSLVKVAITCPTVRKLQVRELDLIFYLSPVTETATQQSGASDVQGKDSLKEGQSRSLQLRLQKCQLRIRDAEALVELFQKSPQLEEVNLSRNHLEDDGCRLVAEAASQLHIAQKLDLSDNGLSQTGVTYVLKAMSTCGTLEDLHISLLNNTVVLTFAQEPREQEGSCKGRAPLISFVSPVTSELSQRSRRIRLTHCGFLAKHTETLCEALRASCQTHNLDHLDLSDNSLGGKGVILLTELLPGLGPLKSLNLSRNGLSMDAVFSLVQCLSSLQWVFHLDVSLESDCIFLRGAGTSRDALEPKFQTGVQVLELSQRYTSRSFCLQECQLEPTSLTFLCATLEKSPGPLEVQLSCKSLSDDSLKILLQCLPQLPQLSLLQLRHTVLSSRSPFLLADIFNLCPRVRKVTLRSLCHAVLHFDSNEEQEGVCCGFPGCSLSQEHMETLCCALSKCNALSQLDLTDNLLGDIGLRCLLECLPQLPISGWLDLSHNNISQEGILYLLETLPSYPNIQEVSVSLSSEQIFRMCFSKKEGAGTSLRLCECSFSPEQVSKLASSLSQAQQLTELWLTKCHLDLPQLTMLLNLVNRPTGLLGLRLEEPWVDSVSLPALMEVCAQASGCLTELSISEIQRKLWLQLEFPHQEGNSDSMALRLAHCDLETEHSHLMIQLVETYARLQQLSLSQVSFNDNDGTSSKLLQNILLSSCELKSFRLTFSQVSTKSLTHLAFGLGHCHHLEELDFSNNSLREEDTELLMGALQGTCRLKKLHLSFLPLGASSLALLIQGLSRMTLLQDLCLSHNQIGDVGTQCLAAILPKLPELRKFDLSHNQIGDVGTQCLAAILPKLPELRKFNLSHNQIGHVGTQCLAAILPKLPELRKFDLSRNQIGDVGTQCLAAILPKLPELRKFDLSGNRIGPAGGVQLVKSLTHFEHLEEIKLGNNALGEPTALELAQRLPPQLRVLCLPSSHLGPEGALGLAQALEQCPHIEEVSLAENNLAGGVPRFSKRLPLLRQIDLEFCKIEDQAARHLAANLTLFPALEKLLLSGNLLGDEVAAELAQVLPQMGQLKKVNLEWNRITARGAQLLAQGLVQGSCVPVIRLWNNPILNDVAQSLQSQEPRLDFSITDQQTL

| binding result [1] | binding result [2] | also measured | Binder |
| --- | --- | --- | --- |
| no binding |  |  | B1 |
| no binding |  |  | B2 |
| no binding |  |  | B3 |
|  | no binding |  | B4 |
|  |  | binding result [3]: no binding | B5 |
|  | no binding |  | B6 |
